The experiment concerns the target 14R1 revertant mutant E. As to the kind of experiment: ELISA, epitope mapping. (In general: In an ELISA, binding on a coated surface is turned into a signal by an enzyme label.)

B1: monoclonal antibody 61D8 (IgG) (antibody, V domains shown)
VH: CKASGYSFTSYWMHWVKQRPGQGLEWIGMIDPSDSETKLNQQFKDKATLTVDTSSSTAYMQLTSPTSEDSVVYYCARGKMGGRFYFDYLGQGTTLTVSS
VL: ITCKASQDVGTAVVWYQQKPGQSPKLLIYWASTRHTGVPDRFTGSGFGTDFTLTISNVQSEDLADYFCQQFSSYPYTFGGGTKLEIKR
As to B1, the fold reduction in 61D8 binding (against 14R1) amounted to 30 fold.

Source of the values: patent US20220064233A1.
